{"source": "patent US20040156842A1", "about": "(ZymoGenetics, published 2004)", "binders": {"B1": {"name": "Zven1 protein produced in baculovirus with a C-terminal Glu-Glu tag (ligand)", "chain": "AVITGACDKDSQCGGGMCCAVSIWVKSIRICTPMGKLGDSCHPLTRKVPFFGRRMHHTCPCLPGLACLRTSFNRFICLAQKGLEYMPMD"}, "B2": {"name": "Heated Zven1 (Baculovirus-expressed Zven1 heated at 56° C. for 30 minutes) (ligand)", "chain": "B1 chain"}, "B3": {"name": "Zven2 (\"endocrine-gland-derived vascular endothelial growth factor\") protein purchased from Peprotech, Inc. (ligand)", "chain": "AVITGACERDVQCGAGTCCAISLWLRGLRMCTPLGREGEECHPGSHKVPFFRKRKHHTCPCLPNLLCSRFPDGRYRCSMDLKNINF"}, "B4": {"name": "Zven1 (E. coli produced) (ligand)", "chain": "AVITGACDKDSQCGGGMCCAVSIWVKSIRICTPMGKLGDSCHPLTRKVPFFGRRMHHTCPCLPGLACLRTSFNRFICLAQK"}}, "key": {"[1]": {"target": "GPCR73a receptor (Homo sapiens (Human)) (UniProt Q8TCW9)", "sequence (Q8TCW9 whole entry)": "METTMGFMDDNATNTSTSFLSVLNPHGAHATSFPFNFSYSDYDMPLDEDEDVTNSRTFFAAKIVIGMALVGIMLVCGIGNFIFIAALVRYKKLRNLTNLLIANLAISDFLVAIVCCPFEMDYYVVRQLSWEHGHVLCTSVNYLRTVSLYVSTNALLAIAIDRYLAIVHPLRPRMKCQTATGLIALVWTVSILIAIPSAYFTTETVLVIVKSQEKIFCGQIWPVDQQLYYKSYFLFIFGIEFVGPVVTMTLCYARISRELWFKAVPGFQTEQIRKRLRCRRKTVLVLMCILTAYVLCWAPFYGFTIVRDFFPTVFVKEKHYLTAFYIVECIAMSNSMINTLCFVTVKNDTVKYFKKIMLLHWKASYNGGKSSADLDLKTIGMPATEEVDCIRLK", "assay": "cell-based or functional assay"}, "[2]": {"target": "Zven1 receptor on Wky12-22 cells (rat)", "assay": "cell-based or functional assay"}, "[3]": {"target": "Zven1 receptor on Wky12-22 cells (rat)", "assay": "saturation binding of I125-radiolabeled Zven1 to Wky12-22 cell monolayers at 4 C, two-site nonlinear regression; low affinity site"}, "[4]": {"target": "Zven1 receptor on Wky12-22 cells (rat)", "assay": "saturation binding of I125-radiolabeled Zven1 to Wky12-22 cell monolayers at 4 C, two-site nonlinear regression; high affinity site"}, "[5]": {"target": "GPCR73b receptor (Homo sapiens (Human)) (UniProt Q8NFJ6)", "sequence (Q8NFJ6 whole entry)": "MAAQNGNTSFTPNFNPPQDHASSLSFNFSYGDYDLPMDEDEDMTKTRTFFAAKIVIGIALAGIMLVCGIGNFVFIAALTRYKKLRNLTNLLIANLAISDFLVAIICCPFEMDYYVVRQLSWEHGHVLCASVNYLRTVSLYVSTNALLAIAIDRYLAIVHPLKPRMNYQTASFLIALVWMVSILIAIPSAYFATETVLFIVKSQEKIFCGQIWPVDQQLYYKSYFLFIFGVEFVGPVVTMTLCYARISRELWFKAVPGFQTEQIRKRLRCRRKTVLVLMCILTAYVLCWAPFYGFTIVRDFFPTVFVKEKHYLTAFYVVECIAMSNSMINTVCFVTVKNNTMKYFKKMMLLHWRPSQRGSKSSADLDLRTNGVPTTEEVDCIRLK", "assay": "cell-based or functional assay"}, "[6]": {"target": "GPCR73a receptor (Homo sapiens (Human)) (UniProt Q8TCW9)", "assay": "cell-based or functional assay", "remark": "listed apart in the source"}, "[7]": {"target": "GPCR73b receptor (Homo sapiens (Human)) (UniProt Q8NFJ6)", "assay": "cell-based or functional assay", "remark": "listed apart in the source"}, "GPCR73a receptor [8]": {"target": "T1, GPCR73a receptor (Homo sapiens (Human), UniProt Q8TCW9 1-393)", "T1 sequence (Q8TCW9 whole entry)": "as the sequence (Q8TCW9 whole entry) above", "assay": "cell-based or functional assay"}, "GPCR73a receptor [9]": {"target": "T1, GPCR73a receptor", "assay": "cell-based or functional assay", "remark": "listed apart in the source"}, "GPCR73b receptor [10]": {"target": "T2, GPCR73b receptor (Homo sapiens (Human), UniProt Q8NFJ6 1-384)", "T2 sequence (Q8NFJ6 whole entry)": "as the sequence (Q8NFJ6 whole entry) above", "assay": "cell-based or functional assay"}, "GPCR73b receptor [11]": {"target": "T2, GPCR73b receptor", "assay": "cell-based or functional assay", "remark": "listed apart in the source"}}, "note": "Read-outs that look alike come from different tables or passages of the source."}
{"binder": "B1", "values": [{"measurement": "SRE luciferase fold-induction at 1 ng/ml (fold-induction)", "setting": "[1]", "value": 2.5}, {"measurement": "SRE luciferase fold-induction at 3.2 ng/ml (fold-induction)", "setting": "[1]", "value": 7.1}, {"measurement": "SRE luciferase fold-induction at 10 ng/ml (fold-induction)", "setting": "[1]", "value": 13.1}, {"measurement": "SRE luciferase fold-induction at 32 ng/ml (fold-induction)", "setting": "[1]", "value": 18.7}, {"measurement": "SRE luciferase fold-induction at 100 ng/ml (fold-induction)", "setting": "[1]", "value": 20.5}, {"measurement": "ERK-Map kinase activity in Wky12-22 cells, EC50", "setting": "[2]", "value": 0.5, "unit": "nM"}, {"measurement": "Bmax (fmol bound/10^6 cells)", "setting": "[3]", "value": 1020}, {"measurement": "Kd", "setting": "[3]", "value": 31, "unit": "nM"}, {"measurement": "Bmax (fmol bound/10^6 cells)", "setting": "[4]", "value": 350}, {"measurement": "Kd", "setting": "[4]", "value": 1.5, "unit": "nM"}]}
{"binder": "B2", "values": [{"measurement": "SRE luciferase fold-induction at 1 ng/ml (fold-induction)", "setting": "[1]", "value": 1.8}, {"measurement": "SRE luciferase fold-induction at 3.2 ng/ml (fold-induction)", "setting": "[1]", "value": 3.7}, {"measurement": "SRE luciferase fold-induction at 10 ng/ml (fold-induction)", "setting": "[1]", "value": 10}, {"measurement": "SRE luciferase fold-induction at 32 ng/ml (fold-induction)", "setting": "[1]", "value": 14.8}, {"measurement": "SRE luciferase fold-induction at 100 ng/ml (fold-induction)", "setting": "[1]", "value": 18.6}]}
{"binder": "B3", "values": [{"measurement": "SRE luciferase fold-induction at 1 ng/ml (fold-induction)", "setting": "[1]", "value": 1.2}, {"measurement": "SRE luciferase fold-induction at 3.2 ng/ml (fold-induction)", "setting": "[1]", "value": 1.6}, {"measurement": "SRE luciferase fold-induction at 10 ng/ml (fold-induction)", "setting": "[1]", "value": 2.5}, {"measurement": "SRE luciferase fold-induction at 32 ng/ml (fold-induction)", "setting": "[1]", "value": 5.8}, {"measurement": "SRE luciferase fold-induction at 100 ng/ml (fold-induction)", "setting": "[1]", "value": 11.4}, {"measurement": "SRE luciferase fold-induction at 320 ng/ml (fold-induction)", "setting": "[1]", "value": 24.4}, {"measurement": "SRE luciferase fold-induction at 1000 ng/ml (fold-induction)", "setting": "[1]", "value": 20}, {"measurement": "SRE luciferase fold-induction at 1 ng/ml (fold-induction)", "setting": "[5]", "value": 1.1}, {"measurement": "SRE luciferase fold-induction at 3.2 ng/ml (fold-induction)", "setting": "[5]", "value": 1.3}, {"measurement": "SRE luciferase fold-induction at 10 ng/ml (fold-induction)", "setting": "[5]", "value": 1.8}, {"measurement": "SRE luciferase fold-induction at 32 ng/ml (fold-induction)", "setting": "[5]", "value": 2.8}, {"measurement": "SRE luciferase fold-induction at 100 ng/ml (fold-induction)", "setting": "[5]", "value": 5.6}, {"measurement": "SRE luciferase fold-induction at 320 ng/ml (fold-induction)", "setting": "[5]", "value": 8.3}, {"measurement": "SRE luciferase fold-induction at 1000 ng/ml (fold-induction)", "setting": "[5]", "value": 8.4}, {"measurement": "SRE luciferase fold-induction at 1 ng/ml (fold-induction)", "setting": "[6]", "value": 0.95}, {"measurement": "SRE luciferase fold-induction at 3.2 ng/ml (fold-induction)", "setting": "[6]", "value": 1.3}, {"measurement": "SRE luciferase fold-induction at 10 ng/ml (fold-induction)", "setting": "[6]", "value": 2.6}, {"measurement": "SRE luciferase fold-induction at 32 ng/ml (fold-induction)", "setting": "[6]", "value": 7.2}, {"measurement": "SRE luciferase fold-induction at 320 ng/ml (fold-induction)", "setting": "[6]", "value": 20.5}, {"measurement": "SRE luciferase fold-induction at 1000 ng/ml (fold-induction)", "setting": "[6]", "value": 15}, {"measurement": "SRE luciferase fold-induction at 3.2 ng/ml (fold-induction)", "setting": "[7]", "value": 1.4}, {"measurement": "SRE luciferase fold-induction at 32 ng/ml (fold-induction)", "setting": "[7]", "value": 2.7}, {"measurement": "SRE luciferase fold-induction at 100 ng/ml (fold-induction)", "setting": "[7]", "value": 4.1}, {"measurement": "SRE luciferase fold-induction at 320 ng/ml (fold-induction)", "setting": "[7]", "value": 5.8}, {"measurement": "SRE luciferase fold-induction at 1000 ng/ml (fold-induction)", "setting": "[7]", "value": 6.1}]}
{"binder": "B4", "values": [{"measurement": "SRE luciferase fold-induction at 1 ng/ml", "setting": "GPCR73a receptor [8]", "value": 1.9, "unit": "fold-induction"}, {"measurement": "SRE luciferase fold-induction at 3.2 ng/ml", "setting": "GPCR73a receptor [8]", "value": 4, "unit": "fold-induction"}, {"measurement": "SRE luciferase fold-induction at 10 ng/ml", "setting": "GPCR73a receptor [8]", "value": 8.4, "unit": "fold-induction"}, {"measurement": "SRE luciferase fold-induction at 32 ng/ml", "setting": "GPCR73a receptor [8]", "value": 15, "unit": "fold-induction"}, {"measurement": "SRE luciferase fold-induction at 100 ng/ml", "setting": "GPCR73a receptor [8]", "value": 19, "unit": "fold-induction"}, {"measurement": "SRE luciferase fold-induction at 320 ng/ml", "setting": "GPCR73a receptor [8]", "value": 20.7, "unit": "fold-induction"}, {"measurement": "SRE luciferase fold-induction at 1000 ng/ml", "setting": "GPCR73a receptor [8]", "value": 17.8, "unit": "fold-induction"}, {"measurement": "SRE luciferase fold-induction at 1 ng/ml", "setting": "GPCR73a receptor [9]", "value": 4.1, "unit": "fold-induction"}, {"measurement": "SRE luciferase fold-induction at 3.2 ng/ml", "setting": "GPCR73a receptor [9]", "value": 7.6, "unit": "fold-induction"}, {"measurement": "SRE luciferase fold-induction at 10 ng/ml", "setting": "GPCR73a receptor [9]", "value": 10.2, "unit": "fold-induction"}, {"measurement": "SRE luciferase fold-induction at 32 ng/ml", "setting": "GPCR73a receptor [9]", "value": 14.1, "unit": "fold-induction"}, {"measurement": "SRE luciferase fold-induction at 100 ng/ml", "setting": "GPCR73a receptor [9]", "value": 17.6, "unit": "fold-induction"}, {"measurement": "SRE luciferase fold-induction at 320 ng/ml", "setting": "GPCR73a receptor [9]", "value": 22, "unit": "fold-induction"}, {"measurement": "SRE luciferase fold-induction at 1000 ng/ml", "setting": "GPCR73a receptor [9]", "value": 13.9, "unit": "fold-induction"}, {"measurement": "SRE luciferase fold-induction at 1 ng/ml", "setting": "GPCR73b receptor [10]", "value": 0.7, "unit": "fold-induction"}, {"measurement": "SRE luciferase fold-induction at 3.2 ng/ml", "setting": "GPCR73b receptor [10]", "value": 1.3, "unit": "fold-induction"}, {"measurement": "SRE luciferase fold-induction at 10 ng/ml", "setting": "GPCR73b receptor [10]", "value": 1.9, "unit": "fold-induction"}, {"measurement": "SRE luciferase fold-induction at 32 ng/ml", "setting": "GPCR73b receptor [10]", "value": 3, "unit": "fold-induction"}, {"measurement": "SRE luciferase fold-induction at 100 ng/ml", "setting": "GPCR73b receptor [10]", "value": 4.7, "unit": "fold-induction"}, {"measurement": "SRE luciferase fold-induction at 320 ng/ml", "setting": "GPCR73b receptor [10]", "value": 6.3, "unit": "fold-induction"}, {"measurement": "SRE luciferase fold-induction at 1000 ng/ml", "setting": "GPCR73b receptor [10]", "value": 7.1, "unit": "fold-induction"}, {"measurement": "SRE luciferase fold-induction at 1 ng/ml", "setting": "GPCR73b receptor [11]", "value": 1, "unit": "fold-induction"}, {"measurement": "SRE luciferase fold-induction at 3.2 ng/ml", "setting": "GPCR73b receptor [11]", "value": 1.2, "unit": "fold-induction"}, {"measurement": "SRE luciferase fold-induction at 10 ng/ml", "setting": "GPCR73b receptor [11]", "value": 1.7, "unit": "fold-induction"}, {"measurement": "SRE luciferase fold-induction at 32 ng/ml", "setting": "GPCR73b receptor [11]", "value": 2.6, "unit": "fold-induction"}, {"measurement": "SRE luciferase fold-induction at 100 ng/ml", "setting": "GPCR73b receptor [11]", "value": 4.4, "unit": "fold-induction"}, {"measurement": "SRE luciferase fold-induction at 320 ng/ml", "setting": "GPCR73b receptor [11]", "value": 5.2, "unit": "fold-induction"}, {"measurement": "SRE luciferase fold-induction at 1000 ng/ml", "setting": "GPCR73b receptor [11]", "value": 4.8, "unit": "fold-induction"}]}
